Data from publication PMC5271678.

Each substance was assayed on GST-CELF1 (recombinant human CELF1) (Homo sapiens) (assay: EMSA). Conditions: 3 fmol RNA with increasing GST-hCELF1, 5% native polyacrylamide gel; buffer, salt, pH and temperature not given (cited ref 31).

| Substance | Kd [nM] |
| --- | --- |
| 7SL RNA fragment (negative control) | > 300 |
| Srp9 3'UTR fragment | 0.84 |
| Srp14 3'UTR fragment | 12.4 |
| Srp19 3'UTR fragment | 33.8 |
| Srp54 3'UTR fragment | 13.5 |
| Srp68 3'UTR fragment | 1.64 |
| Srp72 3'UTR fragment | 0.53 |
